Consider 61 substances from patent US10047131B2, “Peptides and combination of peptides for use in immunotherapy against ovarian cancer and other cancers” (immatics biotechnologies GmbH, priority 2015, dated 2018).

This assay deals with HLA-A*02:01 (Homo sapiens, UniProt P04439, D140Y/D185E/D98H/E176V/E277Q/G131W/G231S/I119V/I121R/I166T/I218V/L300P/L318F/N151K/N90K/P208A/P217A/Q86G/Q94H/R138H/R169H/T345S). The assay is described as follows: MHC binding assay (UV-ligand exchange, ELISA of exchange yield). The settings on record: binding to HLA-A*02:01, UV-ligand exchange. Put shortly: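 Peptide–MHC complexes made by UV-ligand exchange, where a UV-cleavable peptide is replaced by the test peptide. Exchange yield measured by ELISA: complexes diluted 100-fold on streptavidin-coated plates, stabilized complexes detected with HRP anti-β2m, TMB read at 450 nm.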
In general terms: ELISA stands for enzyme-linked immunosorbent assay.
With “443 (GLWEIENNPTV; listed as Homo sapiens) [compound 443]”, the “Peptide exchange (MHC class I binding score, peptide exchange yield)” value (“Peptide exchange” for short) is ““+++” (≥50 = +++)”.
The entry for “444 (GLLRDEALAEV; listed as Homo sapiens) [compound 444]” is ““+++” (≥50 = +++)”.
Under “446 (QLIPALAKV; listed as Homo sapiens) [compound 446]” stands ““+++” (≥50 = +++)”; under “447 (QLVPALAKV; listed as Homo sapiens) [compound 447]”, ““++” (≥20% = ++)”.
The entry for “448 (NLLETKLQL; listed as Homo sapiens) [compound 448]” is ““+++” (≥50 = +++)”.
Take “449 (KLAEGLDIQL; listed as Homo sapiens) [compound 449]”: the “Peptide exchange” value was ““+++” (≥50 = +++)”.
For “450 (FMIDASVHPTL; listed as Homo sapiens) [compound 450]”, the “Peptide exchange” value is reported as ““+++” (≥50 = +++)”.
As for “451 (LLLLDTVTMQV; listed as Homo sapiens) [compound 451]”, the “Peptide exchange” value is given as ““++” (≥20% = ++)”.
The entry for “452 (ILLEHGADPNL; listed as Homo sapiens) [compound 452]” is ““+++” (≥50 = +++)”.
Under “453 (KLLEATSAV; listed as Homo sapiens) [compound 453]” stands ““++” (≥20% = ++)”; under “454 (KLPPPPPQA; listed as Homo sapiens) [compound 454]”, ““+++” (≥50 = +++)”; under “455 (SLLKEPQKVQL; listed as Homo sapiens) [compound 455]”, ““++” (≥20% = ++)”.
The entry for “456 (LLIGHLERV; listed as Homo sapiens) [compound 456]” is ““+++” (≥50 = +++)”; for “457 (SLLPGNLVEKV; listed as Homo sapiens) [compound 457]” it is ““+++” (≥50 = +++)”; for “458 (SLIDKLYNI; listed as Homo sapiens) [compound 458]” it is ““++” (≥20% = ++)”.
As to “459 (ALITEVVRL; listed as Homo sapiens) [compound 459]”, the “Peptide exchange” value is on record as ““++” (≥20% = ++)”.
Regarding “460 (AMLEKNYKL; listed as Homo sapiens) [compound 460]”, the “Peptide exchange” value was ““++++” (≥75% = ++++)”.
As for “461 (VMFRTPLASV; listed as Homo sapiens) [compound 461]”, the “Peptide exchange” value is given as ““++” (≥20% = ++)”.
Under “462 (KLAKQPETV; listed as Homo sapiens) [compound 462]” stands ““+++” (≥50 = +++)”.
The entry for “463 (SLVESHLSDQLTL; listed as Homo sapiens) [compound 463]” is ““+++” (≥50 = +++)”.
Consider “464 (ALNDCIYSV; listed as Homo sapiens) [compound 464]”, for which the “Peptide exchange” value is listed as ““+++” (≥50 = +++)”.
The entry for “465 (QLCDLNAEL; listed as Homo sapiens) [compound 465]” is ““+++” (≥50 = +++)”; for “466 (VLIANLEKL; listed as Homo sapiens) [compound 466]” it is ““++++” (≥75% = ++++)”; for “467 (FLAKDFNFL; listed as Homo sapiens) [compound 467]” it is ““+++” (≥50 = +++)”.
On to “468 (YLRSVGDGETV; listed as Homo sapiens) [compound 468]”, for which the “Peptide exchange” value is recorded as ““+++” (≥50 = +++)”.
Under “469 (YLASDEITTV; listed as Homo sapiens) [compound 469]” stands ““+++” (≥50 = +++)”.
Turning to “471 (YLYNNMIAKI; listed as Homo sapiens) [compound 471]”, the “Peptide exchange” value is ““+++” (≥50 = +++)”.
On to “472 (KLLEVSDDPQV; listed as Homo sapiens) [compound 472]”, for which the “Peptide exchange” value is ““+++” (≥50 = +++)”.
Under “473 (AMATESILHFA; listed as Homo sapiens) [compound 473]” stands ““+++” (≥50 = +++)”; under “474 (YLDPALELGPRNV; listed as Homo sapiens) [compound 474]”, ““+++” (≥50 = +++)”; under “475 (LLLNEEALAQI; listed as Homo sapiens) [compound 475]”, ““+++” (≥50 = +++)”.
The entry for “476 (ALMERTGYSMV; listed as Homo sapiens) [compound 476]” is ““+++” (≥50 = +++)”.
As to “477 (ALLPASGQIAL; listed as Homo sapiens) [compound 477]”, the “Peptide exchange” value is ““+++” (≥50 = +++)”.
The entry for “478 (YLLHEKLNL; listed as Homo sapiens) [compound 478]” is ““+++” (≥50 = +++)”; for “479 (SLFGNSGILENV; listed as Homo sapiens) [compound 479]” it is ““+++” (≥50 = +++)”; for “480 (ALLEDSCHYL; listed as Homo sapiens) [compound 480]” it is ““+++” (≥50 = +++)”.
Under “481 (GLIEDYEALL; listed as Homo sapiens) [compound 481]” stands ““+++” (≥50 = +++)”; under “484 (SLIEKVTQL; listed as Homo sapiens) [compound 484]”, ““+++” (≥50 = +++)”.
The entry for “485 (NVPDSFNEV; listed as Homo sapiens) [compound 485]” is ““+++” (≥50 = +++)”; for “486 (AVMESIQGV; listed as Homo sapiens) [compound 486]” it is ““+++” (≥50 = +++)”.
As for “487 (LLINSVFHV; listed as Homo sapiens) [compound 487]”, the “Peptide exchange” value was ““+++” (≥50 = +++)”.
For the substance “488 (FLAEDPKVTL; listed as Homo sapiens) [compound 488]”, the “Peptide exchange” value is ““+++” (≥50 = +++)”.
Under “489 (KMWEELPEVV; listed as Homo sapiens) [compound 489]” stands ““+++” (≥50 = +++)”; under “490 (FLLQHVQEL; listed as Homo sapiens) [compound 490]”, ““+++” (≥50 = +++)”; under “491 (GLNDRSDAV; listed as Homo sapiens) [compound 491]”, ““++” (≥20% = ++)”.
As for “492 (SLFDGFADGLGV; listed as Homo sapiens) [compound 492]”, the “Peptide exchange” value is given as ““+++” (≥50 = +++)”.
The entry for “493 (GLLGEKTQDLIGV; listed as Homo sapiens) [compound 493]” is ““+++” (≥50 = +++)”; for “494 (ALQPEPIKV; listed as Homo sapiens) [compound 494]” it is ““++” (≥20% = ++)”.
The entry for “495 (FIFSEKPVFV; listed as Homo sapiens) [compound 495]” is ““+++” (≥50 = +++)”; for “496 (FLVEKQPPQV; listed as Homo sapiens) [compound 496]” it is ““+++” (≥50 = +++)”.
Under “497 (GLLEKLTAI; listed as Homo sapiens) [compound 497]” stands ““+++” (≥50 = +++)”; under “498 (KLWTGGLDNTV; listed as Homo sapiens) [compound 498]”, ““+++” (≥50 = +++)”; under “499 (KIFDIDEAEEGV; listed as Homo sapiens) [compound 499]”, ““++” (≥20% = ++)”.
On to “500 (SLMEDQVLQL; listed as Homo sapiens) [compound 500]”, for which the “Peptide exchange” value was ““+++” (≥50 = +++)”.
The entry for “501 (LLDPNVKSIFV; listed as Homo sapiens) [compound 501]” is ““+++” (≥50 = +++)”.
As to “502 (RLLAQVPGL; listed as Homo sapiens) [compound 502]”, the “Peptide exchange” value is ““+++” (≥50 = +++)”.
With “503 (SLNHFTHSV; listed as Homo sapiens) [compound 503]”, the “Peptide exchange” value is given as ““+++” (≥50 = +++)”.
“504 (GLSDGNPSL; listed as Homo sapiens) [compound 504]”: the “Peptide exchange” value is given as ““++” (≥20% = ++)”.
Take “505 (SLAPGDVVRQV; listed as Homo sapiens) [compound 505]”: the “Peptide exchange” value is ““++” (≥20% = ++)”.
The entry for “506 (KLLGKVETA; listed as Homo sapiens) [compound 506]” is ““+++” (≥50 = +++)”; for “507 (KLIDDQDISISL; listed as Homo sapiens) [compound 507]” it is ““+++” (≥50 = +++)”.
